For 32 molecules, Kd results are on record in PMC10786891, “Massively parallel profiling of RNA-targeting CRISPR-Cas13d”.

Where a chain is given by its changes, count along the chain named. Names may count otherwise.

Sequences and labels used below:
T1: EsCas13d, nuclease-dead (Eubacterium siraeum, UniProt B0MS50, R295A;H300A;R849A;H854A)
T1 sequence: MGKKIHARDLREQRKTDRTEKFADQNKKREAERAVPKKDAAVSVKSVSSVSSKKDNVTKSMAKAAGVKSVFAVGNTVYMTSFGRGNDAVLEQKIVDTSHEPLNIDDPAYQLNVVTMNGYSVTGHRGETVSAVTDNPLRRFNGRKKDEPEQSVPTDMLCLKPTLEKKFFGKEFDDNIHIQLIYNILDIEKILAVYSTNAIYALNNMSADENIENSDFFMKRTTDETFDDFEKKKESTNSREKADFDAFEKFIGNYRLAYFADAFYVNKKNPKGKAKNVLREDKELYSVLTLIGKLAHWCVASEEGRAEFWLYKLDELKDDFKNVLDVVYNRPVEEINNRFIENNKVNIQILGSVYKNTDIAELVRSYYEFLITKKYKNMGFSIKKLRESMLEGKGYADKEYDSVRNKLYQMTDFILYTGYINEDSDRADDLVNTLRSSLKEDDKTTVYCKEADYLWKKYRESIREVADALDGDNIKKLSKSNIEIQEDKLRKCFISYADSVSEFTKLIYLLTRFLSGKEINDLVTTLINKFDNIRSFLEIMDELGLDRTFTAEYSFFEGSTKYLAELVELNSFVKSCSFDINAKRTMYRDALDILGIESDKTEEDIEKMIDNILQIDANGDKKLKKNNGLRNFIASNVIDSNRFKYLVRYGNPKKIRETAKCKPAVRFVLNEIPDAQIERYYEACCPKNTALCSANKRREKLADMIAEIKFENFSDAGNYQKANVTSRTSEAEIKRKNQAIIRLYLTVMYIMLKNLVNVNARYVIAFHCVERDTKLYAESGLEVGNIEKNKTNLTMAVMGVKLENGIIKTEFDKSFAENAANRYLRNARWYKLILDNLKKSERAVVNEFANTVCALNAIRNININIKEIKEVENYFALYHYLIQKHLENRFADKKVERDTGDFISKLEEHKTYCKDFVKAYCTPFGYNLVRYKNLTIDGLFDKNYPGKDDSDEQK

B1: target 1 insG 3' of 16,insC 3' of 9 (mixed)
RNA 1: CACCCGUGCAAAAAUGCAGGGGUCUAAAACUGAGCGGAUAACCUCUCUAUGG
RNA 2: GGGAAUGGAUCCACAUCUACGAAUUCGUACCAUAGAGGAGGUUACUCCGCUCACCGAGAUCGGAAGAGCACACGU
B2: target 1 insA 3' of 22,insU 3' of 13 (mixed)
RNA 1: B1 RNA 1
RNA 2: GGGAAUGGAUCCACAUCUACGAAUUCGUACACAUAGAGAGUGUUAUCCGCUCACCGAGAUCGGAAGAGCACACGU
B3: target 1 insC 3' of 20,insC 3' of 9 (mixed)
RNA 1: B1 RNA 1
RNA 2: B1 RNA 2 with U33C, A34U, G35A, A36G, G37A
B4: target 1 insU 3' of 20,insC 3' of 11 (mixed)
RNA 1: B1 RNA 1
RNA 2: B2 RNA 2 with A31C, C32A, A33U, U41G, G42U, U43C
B5: target 1 G5A,G12U (mixed)
RNA 1: B1 RNA 1
RNA 2: GGGAAUGGAUCCACAUCUACGAAUUCGUACCAUAGAGAGUUUAUCCACUCACCGAGAUCGGAAGAGCACACGU
B6: target 1 insC 3' of 11,insG 3' of 7 (mixed)
RNA 1: B1 RNA 1
RNA 2: B1 RNA 2 with G38A, A39G, G41U, U42C, C45U, U46C, C47G
B7: target 1 insU 3' of 20,insA 3' of 7 (mixed)
RNA 1: B1 RNA 1
RNA 2: B1 RNA 2 with A34U, G35A, A36G, G37A, C45U, U46C, C47A
B8: target 1 C7A,G12C (mixed)
RNA 1: B1 RNA 1
RNA 2: B5 RNA 2 with U40C, C45A, A47G
B9: target 1 insC 3' of 19,insC 3' of 18 (mixed)
RNA 1: B1 RNA 1
RNA 2: B1 RNA 2 with A34C, G35A, A36C, G38A, A39G, G40A, U42G, A44U, C45A
B10: target 1 C7U,U19A (mixed)
RNA 1: B1 RNA 1
RNA 2: B5 RNA 2 with U33A, U40G, C45U, A47G
B11: target 1 insG 3' of 11,insC 3' of 8 (mixed)
RNA 1: B1 RNA 1
RNA 2: B1 RNA 2 with G38A, A39G, G41U, U42G, C45U, U46C
B12: target 1 insU 3' of 13,insU 3' of 2 (mixed)
RNA 1: B1 RNA 1
RNA 2: GGGAAUGGAUCCACAUCUACGAAUUCGUACCAUAGAGAGUGUUAUCCGCUCUACCGAGAUCGGAAGAGCACACGU
B13: target 1 U3A,A9C (mixed)
RNA 1: B1 RNA 1
RNA 2: B5 RNA 2 with U40G, A43C, A47G, U49A
B14: target 1 C7U,A14C (mixed)
RNA 1: B1 RNA 1
RNA 2: B5 RNA 2 with A38C, U40G, C45U, A47G
B15: target 1 A9U,U10A (mixed)
RNA 1: B1 RNA 1
RNA 2: B5 RNA 2 with U40G, U42A, A43U, A47G
B16: target 1 insC 3' of 18,insA 3' of 8 (mixed)
RNA 1: B1 RNA 1
RNA 2: B1 RNA 2 with G35C, A36G, G37A, C45U, U46A
B17: target 1 insU 3' of 13,insC 3' of 5 (mixed)
RNA 1: B1 RNA 1
RNA 2: B12 RNA 2 with U50C, C51U, U52C
B18: target 1 C2U,U3G (mixed)
RNA 1: B1 RNA 1
RNA 2: B5 RNA 2 with U40G, A47G, U49G, C50U
B19: target 1 insU 3' of 21,insC 3' of 10 (mixed)
RNA 1: B1 RNA 1
RNA 2: B2 RNA 2 with A31C, C32U, U41G, G42U, U44C
B20: target 1 insG 3' of 10,insU 3' of 7 (mixed)
RNA 1: B1 RNA 1
RNA 2: B1 RNA 2 with G38A, A39G, G41U, U43G, C45U, U46C, C47U
B21: target 1 insU 3' of 17,insG 3' of 8 (mixed)
RNA 1: B1 RNA 1
RNA 2: B1 RNA 2 with A36U, G37A, C45U, U46G
B22: target 1 A9G,U19C (mixed)
RNA 1: B1 RNA 1
RNA 2: B5 RNA 2 with U33C, U40G, A43G, A47G
B23: target 1 G17A,C22A (mixed)
RNA 1: B1 RNA 1
RNA 2: B5 RNA 2 with C30A, G35A, U40G, A47G
B24: target 1 insA 3' of 12,insG 3' of 2 (mixed)
RNA 1: B1 RNA 1
RNA 2: B12 RNA 2 with U40G, G41A, U52G
B25: target 1 insG 3' of 7,insU 3' of 4 (mixed)
RNA 1: B1 RNA 1
RNA 2: B12 RNA 2 with U40G, G41U, U43A, A44U, U45C, C46G, C51U, U52C
B26: target 1 insC 3' of 18 (mixed)
RNA 1: B1 RNA 1
RNA 2: GGGAAUGGAUCCACAUCUACGAAUUCGUACCAUACGAGAGGUUAUCCGCUCACCGAGAUCGGAAGAGCACACGU
B27: target 1 insU 3' of 22,insU 3' of 9 (mixed)
RNA 1: B1 RNA 1
RNA 2: B2 RNA 2 with A31U, U41G, G42U, U44A, A45U
B28: target 1 insC 3' of 19 (mixed)
RNA 1: B1 RNA 1
RNA 2: B26 RNA 2 with A34C, C35A
B29: target 1 insA 3' of 15,insG 3' of 6 (mixed)
RNA 1: B1 RNA 1
RNA 2: B1 RNA 2 with G38A, C45U, U46C, C48G
B30: target 1 insC 3' of 12,insG 3' of 6 (mixed)
RNA 1: B1 RNA 1
RNA 2: B12 RNA 2 with U40G, G41C, C49G, U50C, C51U, U52C
B31: target 1 G12A,G17C (mixed)
RNA 1: B1 RNA 1
RNA 2: B5 RNA 2 with G35C, U40A, A47G
B32: target 1 C4G,A9U (mixed)
RNA 1: B1 RNA 1
RNA 2: B5 RNA 2 with U40G, A43U, A47G, C48G

For the data set, the target named is T1, EsCas13d, nuclease-dead. Description: crRNA (strand 1, pre-loaded); Mg2+; 40 mM Tris-HCl pH 7.5, 150 mM NaCl, 6 mM MgCl2, 1 mM DTT, 0.1% Tween-20, 0.2 mg/ml BSA; 25 C; 10 min per concentration, then washed. Particulars: tags: His6-TwinStrep-SUMO cleaved; N-terminal SNAP kept (SNAP-Surface 488); label: 3' end held by stalled T7 RNA polymerase.
In general, Kd refers to the constant that tells how readily two partners part at equilibrium. Turning to B1, the Kd is 23.4 ± 1.1 nM.

The molecule B2 gave a Kd of 20.6 ± 2.9 nM.

B3 showed a Kd of 8.9 ± 0.6 nM.

In turn, B4 displayed a dissociation constant (Kd) of 62 ± 18 nM.

B5 gave a dissociation constant (Kd) of 14.4 ± 1.4 nM.

Molecule B6 gave a Kd of 23.8 ± 1.5 nM.

The molecule B7 displayed a dissociation constant Kd of 9.9 ± 0.6 nM.

On to B8, for which the Kd came out at 16.4 ± 1.1 nM.

The molecule B9 had a Kd of 45.8 ± 3.4 nM.

Consider B10, for which the Kd turned out to be 34 ± 4 nM.

B11 showed a Kd of 39 ± 6 nM.

As to B12, the Kd came out at 16.6 ± 2.1 nM.

Take B13: binding was characterised by a dissociation constant (Kd) of 14.6 ± 2 nM.

Consider B14, for which the Kd is 30 ± 4 nM.

B15 returned a Kd of 20.5 ± 2.1 nM.

In the case of B16, the affinity, expressed as Kd, was 69 ± 10 nM.

Take B17: binding was put at a Kd of 21 ± 4 nM.

Turning to B18, the Kd stood at 21 ± 4 nM.

B19 showed an equilibrium dissociation constant (Kd) of 51 ± 9 nM.

On to B20, for which binding was put at a Kd of 21.8 ± 0.9 nM.

B21 returned a Kd of 21 ± 1.2 nM.

Consider B22, for which the Kd was found to be 33.8 ± 3.3 nM.

In turn, B23 had a Kd of 57 ± 7 nM.

The molecule B24 displayed a Kd of 30 ± 4 nM.

Regarding B25, the affinity, expressed as Kd, was 6.4 ± 0.4 nM.

As to B26, the Kd came to 30.3 ± 1.9 nM.

In turn, B27 came in with a Kd of approximately 60 nM.

Molecule B28 showed an equilibrium dissociation constant (Kd) of 26.9 ± 2.2 nM.

In turn, B29 showed a Kd of 9.3 ± 0.5 nM.

As to B30, the Kd is 9.1 ± 1.6 nM.

Take B31: the affinity, expressed as Kd, was 34 ± 8 nM.

For the molecule B32, binding was characterised by a dissociation constant (Kd) of 3.93 ± 0.23 nM.
